Experimental data as given in patent US20210347873A1 (SHANGHAI PHARMAEXPLORER, published 2021).

Columns and labels:
[1] = biological target: T1, biotinylated hBLyS-ECD (human, UniProt Q9Y275 134-285, biotinylated with Biotin-X-X-NHS (molar ratio 7:1); sites not stated); assay: competitive ELISA on biotinylated hBLyS-ECD; competitor L1D12
T1 construct: also called biotinylated immunogen; BLyS protein
Procedure: The purified human BLyS antibody and hybridoma antibody were subjected to competitive enzyme-linked immunosorbent assay and the epitopes binding by different antibodies were analyzed.
Purified BLyS antibody was first diluted to a final concentration of 1.0 μg/mL with PBS, then aliquoted into a 96-well ELISA plate at 50 μL per well, and the plate was subsequently sealed with plastic film and incubated at 4° C. overnight. On the next day the plate was rinsed four times with the plate washing buffer [PBS buffer containing 0.05% (v/v) Tween20] and mixed with blocking solution [PBS buffer containing 0.05% (v/v) Tween20 and 1% (w/w) BSA], and then blocked at 37° C. for 1 hour. The blocking solution was removed, and the competitive antibody and IgG control were diluted to a final concentration of 40 μg/mL with PBS and then aliquoted into the 96-well ELISA plate at 50 μL per well. The biotinylated hBLyS-ECD was then diluted with PBS to a final concentration of 2 ng/mL and pipetted into the 96-well ELISA plate at 50 μL per well. The final concentration of competitive antibody and hBLyS-ECD was 20 μg/mL and 1 ng/mL, respectively. After incubation at 37° C. for 1 hour, the plate was rinsed four times with the plate washing buffer [PBS buffer containing 0.05% (v/v) Tween20]. 100 μL per well of HRP-labeled (horseradish peroxidase) streptavidin (purchased from Sigma) was added into the plate and the plate was incubated at 37° C. for 1 hour. The plate was then washed four times with the plate washing buffer [PBS buffer containing 0.05% (v/v) Tween20]. 100 μL of TMB substrate was aliquoted into each well and after incubation at room temperature for 5 minutes, 100 μL of stop solution (1.0 N HCl) was aliquoted into each well. A₄₅₀ₙₘ values were read by an ELISA plate reader (SpectraMax M5e, purchased from Molecular Device) and the results were shown in Tables 18A-18B. […] The data shown in the table is the inhibitory rate (%) of the binding level of the original antibody to hBLyS-ECD after addition of the competitive antibody.

[2] = biological target: T2, biotinylated hBLyS-ECD (human, UniProt Q9Y275 134-285, biotinylated with Biotin-X-X-NHS (molar ratio 7:1), sites not stated); assay: ELISA, biotinylated hBLyS-ECD captured on streptavidin; antibody 66.7 nM
T2 construct: The hBLyS-ECD of Embodiment 1 after biotinylation (Embodiment 2); also called biotinylated immunogen; BLyS protein; not shown: His tag of the pCPC vector
T2 sequence (Q9Y275 134-285): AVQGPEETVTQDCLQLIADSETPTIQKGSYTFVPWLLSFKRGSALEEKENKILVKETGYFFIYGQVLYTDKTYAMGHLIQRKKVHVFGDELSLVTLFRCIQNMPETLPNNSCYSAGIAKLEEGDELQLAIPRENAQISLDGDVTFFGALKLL
Procedure: (§1) Streptavidin was first diluted to a final concentration of 1.0 μg/mL with PBS, and then 50 μL of diluted streptavidin per well was aliquoted into 96-well ELISA plate, which was subsequently sealed with plastic film and incubated at 4° C. overnight. On the next day the plate was washed four times with the plate washing buffer [PBS buffer containing 0.05% (v/v) Tween20] and added with the blocking solution [PBS buffer containing 0.05% (v/v) Tween20 and 1% (w/w) BSA] and blocked for 2 hours at 37° C. The blocking solution was removed, the biotinylated hBLyS-ECD prepared in Embodiment 2 was diluted with PBS to a final concentration of 50 ng/mL and then aliquoted into the 96-well ELISA plate at 50 μL per well and incubated for 1 hour at 37° C. After rinsing the plate four times with the plate washing buffer [PBS buffer containing 0.05% (v/v) Tween20], 100 μl of the purified lead antibody harvested in Embodiment 1 and 2 was pipetted into each well. After incubation for 1 hour at 37° C., the plate was rinsed four times with the plate washing buffer [PBS buffer containing 0.05% (v/v) Tween20]. HRP-labeled (horseradish peroxidase) secondary antibody (purchased from Sigma) was added in and incubated at 37° C. for 1 hour. The plate was then rinsed four times with the plate washing buffer [PBS buffer containing 0.05% (v/v) Tween20]. 100 μL of TMB substrate was aliquoted into each well and after incubation for 5 minutes at room temperature, 100 μL of stop solution (1.0 N HCl) was aliquoted into each well. A₄₅₀ₙₘ values were read via an ELISA plate reader (SpectraMax M5e purchased from Molecular Devices) and the results were shown in FIGS. 5A-5B and Table 10.

[3] = biological target: T2, biotinylated hBLyS-ECD; assay: ELISA, biotinylated hBLyS-ECD captured on streptavidin; antibody 0.00427 nM
Procedure: as §1

[4] = biological target: T1, biotinylated hBLyS-ECD; assay: blocking ELISA: biotinylated hBLyS-ECD on coated BAFF R, antibody 0.00128 nM
Procedure: BLyS antibody blocking the binding of the BLyS protein to its receptor BAFF R was detected by the receptor-ligand binding assay of BLyS protein.
BAFF R (purchased from R & D Systems) was aliquoted into 96-well ELISA plate at 50 ng per well, and the plate was sealed with plastic film and incubated overnight at 4° C. On the next day the plate was washed four times with the plate washing buffer [PBS buffer containing 0.05% (v/v) Tween20] and added with blocking solution [PBS buffer containing 0.05% (v/v) Tween20 and 1% (w/w) BSA], then blocked for 1 hour at room temperature. The blocking solution was removed and 50 μL per well of the lead antibodies prepared in Embodiment 1 and 2 were added followed by the addition of 50 μL per well of the biotinylated hBLyS-ECD prepared in Embodiment 2. After incubation for 1 hour at 37° C., the plate was washed four times with the plate washing buffer [PBS buffer containing 0.05% (v/v) Tween20]. 100 μL per well of HRP-labeled (horseradish peroxidase) avidin (purchased from Sigma) was added and incubated at 37° C. for 1 hour. The plate was then washed four times with the plate washing buffer [PBS buffer containing 0.05% (v/v) Tween20]. 100 μL of TMB substrate was aliquoted into each well and after incubation for 5 minutes at room temperature, then 100 μL of stop solution (1.0 N HCl) was aliquoted into each well. A₄₅₀ₙₘ values were read with an ELISA plate reader (SpectraMax 384plus, Molecular Device) and the results were shown in FIGS. 9A-9B and Table 15. It was shown in Table 15 that the binding of BLyS protein to its receptor BAFF R could be blocked by the BLyS antibody.
Target sequence in this assay (Q9Y275 134-285): as above

| Binder | inhibitory rate (%) [1] | OD450 nm [2] | OD450 nm [3] | OD450 nm [4] |
| --- | --- | --- | --- | --- |
| L1D12 (antibody, V domains shown, From a human naive scFv phage library; also called human BLyS antibody L1D12; LID12) VH: QVQLVQSGGGLVQPGGSLRLSCAASGFTVSSNYMSWVRQAPGKGLEWVSVIYSGGSTYYADSVKGRFTISRDNSKNTLYLQMNSLRAEDTAVYYCARGFHDILTGYGMDVWGQGTTVTVSS VL: SSELTQDPAVSVALGQTVRITCQGDSLRNYYAGWYQQKPGQAPVLVIYGKNNRPSGIPDRFSGSSSGNTASLTITGTQAEDEADYYCSSRDNSGTHLVEFGGGTKLTVL | 94% |  |  |  |
| L1D12 (antibody, human IgG1, V domains shown, also called LID12) VH: QVQLVQSGGGLVQPGGSLRLSCAASGFTVSSNYMSWVRQAPGKGLEWVSVIYSGGSTYYADSVKGRFTISRDNSKNTLYLQMNSLRAEDTAVYYCARGFHDILTGYGMDVWGQGTTVTVSS VL: SSELTQDPAVSVALGQTVRITCQGDSLRNYYAGWYQQKPGQAPVLVIYGKNNRPSGIPDRFSGSSSGNTASLTITGTQAEDEADYYCSSRDNSGTHLVEFGGGTKLTVL |  | 1.75 | 0.135 |  |
| 2-1G11 (antibody, V domains shown, From a human naive scFv phage library; also called human BLyS antibody 2-1G11) VH: EVQLVESRGGVVQPGRSLRLSCAASGFTFSSYGMHWVRQAPGKGLEWVAVISYDGSNKYYADSVKGRFTISRDNSKNTLYLQMNSLRAEDAAVYYCARDRVDILTGYSIYGMDVWGQGTTVTVSS VL: EIVMTQSPATLSLSPGERATLSCRASQSVSSYLAWYQQKPGQAPRLLIYDASKRATGIPARFSGSGSGTDFTLTISSLEPEDFAVYYCQQRSNWPLTFGGGTKVEIK | 91% |  |  |  |
| L9G7 (antibody, human IgG1, V domains shown) VH: QIQLVQSGAEVKKPGASVKVSCKASGYTFTSYGISWVRQAPGQGLEWMGWISAYNGNTNYAQKLQGRVTMTTDTSTSTAYMELRSLRSDDTAVYYCARTYYDILTGYYYYGMDVWGQGTTVTVSS VL: EIVLTQSPGTLSLSPGERATLSCRTSQSVDTYLAWYQQKPGQAPRLLIYDASNRATGIPARFSGSGSGTDFTLTISSLEPEDFAVYYCQQRSNWPLTFGGGTKVEIK |  | 1.81 | 0.0853 |  |
| L9G7 (antibody, V domains shown, From a human naive scFv phage library; also called human BLyS antibody L9G7) VH: QIQLVQSGAEVKKPGASVKVSCKASGYTFTSYGISWVRQAPGQGLEWMGWISAYNGNTNYAQKLQGRVTMTTDTSTSTAYMELRSLRSDDTAVYYCARTYYDILTGYYYYGMDVWGQGTTVTVSS VL: EIVLTQSPGTLSLSPGERATLSCRTSQSVDTYLAWYQQKPGQAPRLLIYDASNRATGIPARFSGSGSGTDFTLTISSLEPEDFAVYYCQQRSNWPLTFGGGTKVEIK | 97% |  |  |  |
| 8E7D9C7F5 (antibody, V domains shown, Mouse hybridoma monoclonal antibody purified on Protein G) VH: QVQLQQSGVELARPGASVKLSCKASGYTFTSYGISWVKQRTGQALEWIGEIYPRSGNTYYNEKFKGKATLTADKSSSTAYMELRSLTSEDSAVYFCARSGPITTLVATDYGMDYWGQGTSVTVSS VL: DIVLTQSPASLAVSLGQRATISCRASKSVSTSSYSYMHWYQQKPGQPPKLLIKFASNLESGVPARFSGSGSGTDFTLNIHPVEEEDAATYYCQHSREFPYTFGGGTKLEIK |  |  |  | 1.62 OD450 nm |
| 111D10D6G3 (antibody, V domains shown, Mouse hybridoma monoclonal antibody purified on Protein G) VH: QVQLQQPGAELVKPGASVKMSCKASGYTFTRHWITWVKQRPGQGLEWIGDIFPGSGSINYNEKFKSEATLTVEKSSSTAYMQLSSLTSEDSAVYYCARGDVDVWGTGTTVTVSS VL: DIQMTQSPSSLSASLGERVSLTCRASQEIRGYLSWLQQKPNGTIKRLIYAASTLDSGVPKRFSATRSGSDFSLTISSLESEDFADYYCLQYASYPFTFGSGTKLEIK |  |  |  | 1.27 OD450 nm |
| 111D10D6G3 (antibody, V domains shown, Mouse hybridoma antibody purified on Protein G) VH: QVQLQQPGAELVKPGASVKMSCKASGYTFTRHWITWVKQRPGQGLEWIGDIFPGSGSINYNEKFKSEATLTVEKSSSTAYMQLSSLTSEDSAVYYCARGDVDVWGTGTTVTVSS VL: DIQMTQSPSSLSASLGERVSLTCRASQEIRGYLSWLQQKPNGTIKRLIYAASTLDSGVPKRFSATRSGSDFSLTISSLESEDFADYYCLQYASYPFTFGSGTKLEIK |  | 1.94 | 0.082 |  |
| 97A3C2H4 (antibody, V domains shown, Mouse hybridoma monoclonal antibody purified on Protein G) VH: EVKLVESGGGLVQPGGSLKLSCAASGFTFSTYTMSWVRQTPEKRLEWVAYISYGGGSTSYPDTVKGRFTISRDNAKNTLYLQMSSLKSEDTAIYYCTRHVTVVENSMDYWGQGTSVTVSS VL: DILLTQSPDILSVSPGERVSFSCRASQSIGTSIHWYQQRTNGSPRLLIKYVSESFSGTPSRFSGSGSGTAFTLTINSVESEDIADYYCQQTHSWPWTFGGGTKLEIK |  |  |  | 1.34 OD450 nm |
| 97A3C2H4 (antibody, V domains shown, Mouse hybridoma antibody purified on Protein G) VH: EVKLVESGGGLVQPGGSLKLSCAASGFTFSTYTMSWVRQTPEKRLEWVAYISYGGGSTSYPDTVKGRFTISRDNAKNTLYLQMSSLKSEDTAIYYCTRHVTVVENSMDYWGQGTSVTVSS VL: DILLTQSPDILSVSPGERVSFSCRASQSIGTSIHWYQQRTNGSPRLLIKYVSESFSGTPSRFSGSGSGTAFTLTINSVESEDIADYYCQQTHSWPWTFGGGTKLEIK |  | 2.98 | 0.105 |  |
